Test results as given in the nanobody polyreactivity screen of Harvey et al. (2022).

Test: yeast display, Sf9 membrane polyspecificity reagent, FACS + sequencing; frameworks hold sequencing errors
How it was run: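 Sorting gates, low and high (top ~1%), were placed on anti-HA fluorescence to track expression and on streptavidin fluorescence to track reagent binding. A clone's polyreactivity label is taken from the gate it came out of. The reagent was 10% biotinylated, detergent-solubilized Sf9 membrane, applied for 1 hour at 4 °C to galactose-induced yeast display cells.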

| Sequence | polyreactivity (PSR sort gate) |
| --- | --- |
| QVQLVESGGGLVQAGGSLRLSCAASGSIFYAYAMGWYRQAPGKEMELVAAIDTSGGRTYYADSVKGRFTISRDNAKNTVYLQLNSLKPEDTAVYYCDAECPCYNEHYYWGQGTQVTVSS | high polyreactivity |
| QVQLVESGGGLVQAGGSLRLSCAASGSIFYAYAMGWYRQAPGKERELVAAIRSSDSRTYYADSVKGRFTISRDNAKNTVYLQMNSLKPEDTAVYYCAADGSRKVKFDYWGQGTQVTVSS | high polyreactivity |
| QVQLVESGGGLVQAGGSLRLSCAASGSIFYDNAMGWYRQAPGKERELVAVISNSGRTDYADSVKGRFTISRDNAKNTVYLQMNSLKPEDTAVYYCAAVVQGTTVWWGYDYWGQGTQVTVSS | low polyreactivity |
| QVQLVESGGGLVQAGGSLRLSCAASGSIFYENMGWYRQAPGKERELVASISWSGTSTYADSVKGRFTISRDNAKNTVYLQMNSLKPEDTAVYYCAAGKNGYTYSRSYSYGYWGQGTQVTVSS | high polyreactivity |
| QVQLVESGGGLVQAGGSLRLSCAASGSIFYEYAMGWYRQAPGKEREFVAAISSSGGSTYYADSVKGRFTISRDNAKNTVYLQMNSLKPEDTAVYYCAADIYYYLWGLYYWGQGTQVTVSS | low polyreactivity |
| QVQLVESGGGLVQAGGSLRLSCAASGSIFYFNAMGWYRQAPGKERELVAAINISGSSTSYADSVKGRFTISRDNAKNTVYLQMNSLKPEDTAVYYCYAGPYTYLHWNQAISRYYYWGQGTQVTVSS | low polyreactivity |
| QVQLVESGGGLVQAGGSLRLSCAASGSIFYFNAMGWYRQAPGKERELVAAITYSGGSTYYADSVKGRFTISRDNAKNTFYLQMNILKPEDTAVYYCAAERRTFPLRIFDYWGQGTQVTVSS | low polyreactivity |
| QVQLVESGGGLVQAGGSLRLSCAASGSIFYFNGMGWYRQAPGKERELVAAITWGDGSTYYADSVKGRFTISRDNAKNTVYLQMNSLKREDNAVYYCAAVLLIFKYVPRYDYWGQGTQVTVSS | low polyreactivity |
| QVQLVESGGGLVQAGGSLRLSCAASGSIFYGHAMGWYRQAPGKERELVATISWSTGSTYYADSVKGRFTISRDHAKNTVYLQMNSLKPEDTAVYYCAKEYFSKQWRGGYWGQGTQVTVSS | high polyreactivity |
| QVQLVESGGGLVQAGGSLRLSCAASGSIFYGNTMGWYRQAPGKERELVAAIRSVGRTYYADSVKGRFTISRDNAKNTVYLQMNSLKPEDTAVYYCAADPRSYFTSEYWGQGTQVTVSS | high polyreactivity |
| QVQLVESGGGLVQAGGSLRLSCAASGSIFYGYAMAWYRQAPGKERELVAAITRSGGSTYYADSVKGRFTISRDNAKNTVYLQMNSLKPEDTAVYYCAAVSRSRRMDYWGQGTQVTVSS | high polyreactivity |
| QVQLVESGGGLVQAGGSLRLSCAASGSIFYGYAMGWYRQAPGKERELVAAITSSGTRTYYADSVKGRFTISRDNAKNTVYLQMNSLKPEDTAVYYCAADGPGYQYDYWGQGTQVTVSS | high polyreactivity |
| QVQLVESGGGLVQAGGSLRLSCAASGSIFYGYAMGWYRQAPGKERELVAAITTSGGSTYYADSVKGRFTISRDNAKYTVYLQMNSLKPEDTAVYYCAAVTYWPGGYYWGQGTQVTVSS | high polyreactivity |
| QVQLVESGGGLVQAGGSLRLSCAASGSIFYGYDMGWYRQAPGKERELVAAITIGGGTTYYADSVKGRFTISRDNAKNTVYLQMNSLKPEDTAVYYCAAEFYYTIYSNKVGYDYWGQGTQVSVSS | high polyreactivity |
| QVQLVESGGGLVQAGGSLRLSCAASGSIFYGYVMGWYRQAPGKERELVAAISRSGGRTYYADSVKGRFTISRDNAKNTVYLQMNSQKPEDTAVYDCNARQAGTPYKYAYYGRYYWGQGTQVTVSS | high polyreactivity |
| QVQLVESGGGLVQAGGSLRLSCAASGSIFYHYVMGWYRQAPGKDRELVAGISWSGVSTYYADSVKGLFTISRDNAKNTVYLQMNSLKPEDTAVYYCAAVYRQSRLHTFGYWGQGTQVTVSS | high polyreactivity |
| QVQLVESGGGLVQAGGSLRLSCAASGSIFYIYAMGWSRQAPGKERELVASITFSGDITYYADSVKGRFTISRDNAKNTVYLQMNSLKPEDTAVYYCNTRTPYWFKSDYWGQGTQVTVSS | low polyreactivity |
